Reference: article PMC6203986, “Crystal structure of carbonic anhydrase CaNce103p from the pathogenic yeast Candida albicans” (BMC Structural Biology, 2018)
Values joined by “and” are separate entries in the source; they are usually repeats but may differ in a detail not shown here. Equal entries are not always repeated.

Target: the molecule itself
Assay: SEC; HR200 Increase (Superdex 200 Increase 10/300 GL) column in 10 mM Tris-Cl, pH 8, 20 mM β-mercaptoethanol, 0.5 ml/min, calibrated with molecular weight markers; for Δ29 100 μl of 1.0 mg/ml injected; self-association

Protein | stoichiometry N
Δ29_CaNce103p, CaNce103p lacking the first 29 amino acids (domain or fragment, Carbonic anhydrase Nce103p of Candida albicans (strain HE109) lacking the first 29 amino acids; C-terminus at residue 281; no tag (stop codon kept); source: E. coli BL23(DE3), purified (HiTrap Ni column, MonoQ)) DNNNNLNGMNNTIKTHPVRVSSGNHNNFPFTLSSESTLQDFLNNNKFFVDSIKHNHGNQIFDLNGQGQSPHTLWIGCSDSRAGDQCLATLPGEIFVHRNIANIVNANDISSQGVIQFAIDVLKVKKIIVCGHTDCGGIWASLSKKKIGGVLDLWLNPVRHIRAANLKLLEEYNQDPKLKAKKLAELNVISSVTALKRHPSASVALKKNEIEVWGMLYDVATGYLSQVEIPQDEFEDLFHVHDEHDEEEYNPH | 4 and 2
CaNce103p, carbonic anhydrase from Candida albicans, wild-type full length (enzyme, Carbonic anhydrase Nce103p of Candida albicans, full length (C-terminus at residue 281); gene amplified from genomic DNA of strain HE109; stop codon kept so that no His-tag is attached; purified on Ni through four natural C-terminal histidines; also called wt; source: E. coli BL23(DE3), purified (HiTrap Ni column, MonoQ)) MGRENILKYQLEHDHESDLVTEKDQSLLLDNNNNLNGMNNTIKTHPVRVSSGNHNNFPFTLSSESTLQDFLNNNKFFVDSIKHNHGNQIFDLNGQGQSPHTLWIGCSDSRAGDQCLATLPGEIFVHRNIANIVNANDISSQGVIQFAIDVLKVKKIIVCGHTDCGGIWASLSKKKIGGVLDLWLNPVRHIRAANLKLLEEYNQDPKLKAKKLAELNVISSVTALKRHPSASVALKKNEIEVWGMLYDVATGYLSQVEIPQDEFEDLFHVHDEHDEEEYNPH | 2 and 4
